Test results published in the supplement of paper PMC10567573.

B1: PLK2 (parent)
chain: YAELGQCSVFPATDAPEQFISQVT

Variants of: B1
Experiment: protein stability index of a GFP-peptide fusion (GPS, HEK-293T) (PSI 1-6); higher = more stable
Conditions: c terminus: a fixed tail appended
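Also: lentivirally expressed fusions sorted by FACS into six bins by GFP to DsRed ratio, PSI derived from sequencing read proportions per bin multiplied by bin number.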

Variant	protein stability index
YAGLGQCSVFPATDAPEQFISQVT [E3G]	1.85
YAELGQCSVHPATDAPEQFISQVT [F10H]	3.43
YAELGQCIVFPATDAPEQFISQVT [S8I]	1.75
YAELGQCSPFPATDAPEQFISQVT [V9P]	2.41
YAELGQCSVFPATDAPEQFISNVT [Q22N]	2.31
YAELGQRSVFPATDAPEQFISQVT [C7R]	2.57
QAELGQCSVFPATDAPEQFISQVT [Y1Q]	4.7
YAELGQCSVFPATFAPEQFISQVT [D14F]	2.04
YAELGQCSVFPATDAPLQFISQVT [E17L]	2.33
YNELGQCSVFPATDAPEQFISQVT [A2N]	3.75
YAELGQCSVFPAVDAPEQFISQVT [T13V]	2.2
YAELGQCSVFPARDAPEQFISQVT [T13R]	2.22
YAELGKCSVFPATDAPEQFISQVT [Q6K]	2.05
YAELGQCSAFPATDAPEQFISQVT [V9A]	2.36
YAELGQCSVFPATDAPEQFKSQVT [I20K]	2.15
YAEHGQCSVFPATDAPEQFISQVT [L4H]	3.25
YAELGQCSVFPATDTPEQFISQVT [A15T]	2.19
YAELWQCSVFPATDAPEQFISQVT [G5W]	3.46
YAECGQCSVFPATDAPEQFISQVT [L4C]	2.43
YAELGQCSVFPATDAPEQFISQVQ [T24Q]	2.68
YAELGQCSVFPATDAPEQFISHVT [Q22H]	2.27
YAEFGQCSVFPATDAPEQFISQVT [L4F]	2.5
YAELGQFSVFPATDAPEQFISQVT [C7F]	1.78
YAELGQCSVFPATDAPEQFSSQVT [I20S]	3.25

Variant	protein stability index
YAELGQCSVVPATDAPEQFISQVT [F10V]	3.52
YAELGCCSVFPATDAPEQFISQVT [Q6C]	1.61
YAELGQCSVFPATDAPEQFISAVT [Q22A]	1.94
YIELGQCSVFPATDAPEQFISQVT [A2I]	1.64
YAELVQCSVFPATDAPEQFISQVT [G5V]	2.21
YAELGQCSVFPSTDAPEQFISQVT [A12S]	2.1
YAELGQCSVFPATDAPEQFISQNT [V23N]	2.58
YAELGQCSVFPATDAPEQMISQVT [F19M]	2.43
YAESGQCSVFPATDAPEQFISQVT [L4S]	2.86
YAELGQCSVFPATDFPEQFISQVT [A15F]	1.98
YAELGQCSVYPATDAPEQFISQVT [F10Y]	2.4
YAELGQCSVAPATDAPEQFISQVT [F10A]	3.34
YAELGQCSVFPATDAPEQFIRQVT [S21R]	1.76
YAELGQCSVFPATNAPEQFISQVT [D14N]	2.13
YAERGQCSVFPATDAPEQFISQVT [L4R]	1.99
YAELGQCPVFPATDAPEQFISQVT [S8P]	2.04
YAEIGQCSVFPATDAPEQFISQVT [L4I]	2.5
YAELGQCSQFPATDAPEQFISQVT [V9Q]	2.71
YAEPGQCSVFPATDAPEQFISQVT [L4P]	3.04
YAELGQCSVFPATDAPEQFITQVT [S21T]	2.49
YAELGQCSVFPATDAPEQFISQVY [T24Y]	2
YAELGQCSVFPVTDAPEQFISQVT [A12V]	2.1
YAELGGCSVFPATDAPEQFISQVT [Q6G]	2.04
YAELGQCSVFPATDAPEQLISQVT [F19L]	2.36

Variant	protein stability index
YAELGQCSVFPATDNPEQFISQVT [A15N]	2.33
YAELGQCSVFPATDAPSQFISQVT [E17S]	2.06
YAELGQCYVFPATDAPEQFISQVT [S8Y]	1.59
YAELGQCSVFPATDAPEQFGSQVT [I20G]	2.69
YAELGQCSVFPATDAPEQFISQKT [V23K]	2.38
YAELGQCSVFPATDAPIQFISQVT [E17I]	1.75
YAALGQCSVFPATDAPEQFISQVT [E3A]	1.85
YAELGQCSVFPATDASEQFISQVT [P16S]	2.33
YAELGQMSVFPATDAPEQFISQVT [C7M]	2.23
YAKLGQCSVFPATDAPEQFISQVT [E3K]	2.17
YAELGQCSVFPAKDAPEQFISQVT [T13K]	2
YAHLGQCSVFPATDAPEQFISQVT [E3H]	1.93
YAELGQCSTFPATDAPEQFISQVT [V9T]	3.12
YAELGQCSVFPATDAPEQFISTVT [Q22T]	2.1
YAELGQCSVFPATDAPEQFLSQVT [I20L]	2.11
YAELGQCSVFPGTDAPEQFISQVT [A12G]	2.39
YAELGQCSVFPATDAPEQYISQVT [F19Y]	1.94
YAELGWCSVFPATDAPEQFISQVT [Q6W]	2.89
YAELGQCSVFPATDAYEQFISQVT [P16Y]	1.79
YAELGQCSVFPATDAPEQFISQVE [T24E]	2.33
RAELGQCSVFPATDAPEQFISQVT [Y1R]	3.78
YAELGQCSVFPWTDAPEQFISQVT [A12W]	2.14
YAELGQCTVFPATDAPEQFISQVT [S8T]	2.28
YAELGQCSVFPAPDAPEQFISQVT [T13P]	2.17

Variant	protein stability index
YAELGQCSVFPATDAPEQFISQWT [V23W]	2.39
YAELGQCSVFPATDAPEWFISQVT [Q18W]	2.21
YAELGQCSVFPATDAPYQFISQVT [E17Y]	2.64
YAELGQCSVFPATMAPEQFISQVT [D14M]	1.75
YAELGQCSVFPATDANEQFISQVT [P16N]	2.35
YAELEQCSVFPATDAPEQFISQVT [G5E]	3.81
YAELGQCDVFPATDAPEQFISQVT [S8D]	3.06
YAELGQCSVFPATDAPEQFISQQT [V23Q]	2.56
YAELGQCSVFFATDAPEQFISQVT [P11F]	3.39
YAELGQCSVPPATDAPEQFISQVT [F10P]	3.58
YAELGQCSVFPATDAPEQFISQDT [V23D]	3.06
YRELGQCSVFPATDAPEQFISQVT [A2R]	3.6
YAELGQCSVFPATDAPEQFDSQVT [I20D]	2.75
YAELGQCSVFPATDAHEQFISQVT [P16H]	1.58
DAELGQCSVFPATDAPEQFISQVT [Y1D]	4.58
YAELGQCSVRPATDAPEQFISQVT [F10R]	3.18
YAELGQCSVFPATDGPEQFISQVT [A15G]	2.38
YAEEGQCSVFPATDAPEQFISQVT [L4E]	4.42
YAELGQCSVFPATDAPEQFISPVT [Q22P]	2.47
YAEVGQCSVFPATDAPEQFISQVT [L4V]	2.9
YAELGYCSVFPATDAPEQFISQVT [Q6Y]	1.95
YAETGQCSVFPATDAPEQFISQVT [L4T]	3.05
